Data on 66 substances can be found in the array DNA melting data of Ke et al..

The series is described as follows: melting temperature; melt of duplexes. The note with it: sodium 0.0675 M; strand 1 µM.
Take “CGACGTGCATAATGTGCTG+CAGCACATTTTGCACGTCG (((((((((.(((((((((+))))))))).)))))))))”: the midpoint of thermal melting (Tm) (in general, the temperature at which the thermal transition is half complete) came to 56.1 °C.

Regarding “CGACGTGCTGTATGTGCTG+CAGCACATGAAGCACGTCG (((((((((..((((((((+))))))))..)))))))))”, the midpoint of thermal melting (Tm) was 54.9 °C.

For “CGACGTGCGGGATGTGCTG+CAGCACATCTCGCACGTCG (((((((((.(((((((((+))))))))).)))))))))”, the Tm came out at 62.3 °C.

“CGACGTGCCGCATGTGCTG+CAGCACATTTGGCACGTCG (((((((((..((((((((+))))))))..)))))))))”: the melting temperature (Tm) came to 53.9 °C.

Regarding “CGACGTGCGCCATGTGCTG+CAGCACATAACGCACGTCG (((((((((..((((((((+))))))))..)))))))))”, the melting temperature (Tm) worked out at 52.4 °C.

On to “CGACGTGCGTCATGTGCTG+CAGCACATCCTGCACGTCG ((((((((...((((((((+))))))))...))))))))”, for which the Tm worked out at 48.9 °C.

Consider “CGACGTGCAACATGTGCTG+CAGCACATGAAGCACGTCG ((((((((..(((((((((+)))))))))..))))))))”, for which the Tm was determined as 54.3 °C.

As to “CGACGTGCGCTATGTGCTG+CAGCACATGACGCACGTCG (((((((((..((((((((+))))))))..)))))))))”, the Tm amounted to 52.4 °C.

Turning to “CGACGTGCAAAATGTGCTG+CAGCACATCTCGCACGTCG ((((((((.(.((((((((+)))))))).).))))))))”, the midpoint of thermal melting (Tm) amounted to 48.6 °C.

For “CGACGTGCTTTATGTGCTG+CAGCACATCGTGCACGTCG ((((((((...((((((((+))))))))...))))))))”, the Tm was found to be 42.3 °C.

Regarding “CGACGTGCCTAATGTGCTG+CAGCACATCGCGCACGTCG ((((((((...((((((((+))))))))...))))))))”, the Tm is 47 °C.

On to “CGACGTGCCTAATGTGCTG+CAGCACATTCGGCACGTCG (((((((((.(((((((((+))))))))).)))))))))”, for which the melting temperature (Tm) is 57 °C.

In the case of “CGACGTGCTTAATGTGCTG+CAGCACATGCTGCACGTCG ((((((((...((((((((+))))))))...))))))))”, the Tm came to 49.1 °C.

With “CGACGTGCGTAATGTGCTG+CAGCACATGTGGCACGTCG ((((((((...((((((((+))))))))...))))))))”, the melting temperature (Tm) was determined as 51.8 °C.

For “CGACGTGCAGTATGTGCTG+CAGCACATTCCGCACGTCG ((((((((.(.((((((((+)))))))).).))))))))”, the melting temperature (Tm) worked out at 50.1 °C.

For “CGACGTGCCCAATGTGCTG+CAGCACATCTTGCACGTCG ((((((((...((((((((+))))))))...))))))))”, the Tm was determined as 48.1 °C.

Regarding “CGACGTGCCACATGTGCTG+CAGCACATCTTGCACGTCG ((((((((.(.((((((((+)))))))).).))))))))”, the Tm stood at 47.5 °C.

With “CGACGTGCAACATGTGCTG+CAGCACATGCAGCACGTCG ((((((((..(((((((((+)))))))))..))))))))”, the melting temperature (Tm) was 53.9 °C.

As for “CGACGTGCGTTATGTGCTG+CAGCACATTGAGCACGTCG ((((((((...((((((((+))))))))...))))))))”, the Tm was 54 °C.

In the case of “CGACGTGCCTAATGTGCTG+CAGCACATAAAGCACGTCG ((((((((.(.((((((((+)))))))).).))))))))”, the Tm was 50.3 °C.

As to “CGACGTGCACGATGTGCTG+CAGCACATCGTGCACGTCG (((((((((((((((((((+)))))))))))))))))))”, the midpoint of thermal melting (Tm) came out at 65.4 °C.

With “CGACGTGCCCGATGTGCTG+CAGCACATAGCGCACGTCG ((((((((.(.((((((((+)))))))).).))))))))”, the Tm stood at 50.8 °C.

For the substance “CGACGTGCGTGATGTGCTG+CAGCACATGCCGCACGTCG (((((((((..((((((((+))))))))..)))))))))”, the Tm stood at 54.7 °C.

As for “CGACGTGCTGGATGTGCTG+CAGCACATGTGGCACGTCG ((((((((...((((((((+))))))))...))))))))”, the Tm came out at 52.6 °C.

With “CGACGTGCGGCATGTGCTG+CAGCACATCTGGCACGTCG ((((((((...((((((((+))))))))...))))))))”, the Tm is 51.1 °C.

Regarding “CGACGTGCCAAATGTGCTG+CAGCACATCCTGCACGTCG ((((((((...((((((((+))))))))...))))))))”, the Tm is 48.5 °C.

Regarding “CGACGTGCCCCATGTGCTG+CAGCACATCAGGCACGTCG (((((((((..((((((((+))))))))..)))))))))”, the Tm was found to be 52.5 °C.

For “CGACGTGCCGTATGTGCTG+CAGCACATTCAGCACGTCG ((((((((.(.((((((((+)))))))).).))))))))”, the midpoint of thermal melting (Tm) turned out to be 50.1 °C.

On to “CGACGTGCTGTATGTGCTG+CAGCACATGGAGCACGTCG (((((((((..((((((((+))))))))..)))))))))”, for which the Tm turned out to be 55 °C.

For “CGACGTGCATCATGTGCTG+CAGCACATCTGGCACGTCG ((((((((...((((((((+))))))))...))))))))”, the midpoint of thermal melting (Tm) stood at 47.5 °C.

As for “CGACGTGCGTTATGTGCTG+CAGCACATTAGGCACGTCG ((((((((.(.((((((((+)))))))).).))))))))”, the Tm came to 52.2 °C.

For the substance “CGACGTGCCCCATGTGCTG+CAGCACATGAAGCACGTCG ((((((((..(((((((((+)))))))))..))))))))”, the Tm amounted to 52 °C.

As for “CGACGTGCGAGATGTGCTG+CAGCACATGCGGCACGTCG ((((((((...((((((((+))))))))...))))))))”, the Tm is 50.4 °C.

In the case of “CGACGTGCCAGATGTGCTG+CAGCACATTAGGCACGTCG (((((((((..((((((((+))))))))..)))))))))”, the midpoint of thermal melting (Tm) amounted to 56.2 °C.

Regarding “CGACGTGCCTTATGTGCTG+CAGCACATCGGGCACGTCG (((((((((..((((((((+))))))))..)))))))))”, the midpoint of thermal melting (Tm) came to 53.1 °C.

For “CGACGTGCAGAATGTGCTG+CAGCACATGGCGCACGTCG ((((((((...((((((((+))))))))...))))))))”, the Tm came out at 55.9 °C.

Turning to “CGACGTGCGGCATGTGCTG+CAGCACATGGGGCACGTCG ((((((((..(((((((((+)))))))))..))))))))”, the Tm is 57.6 °C.

Consider “CGACGTGCGCGATGTGCTG+CAGCACATAGAGCACGTCG ((((((((.(.((((((((+)))))))).).))))))))”, for which the midpoint of thermal melting (Tm) came out at 55.8 °C.

Consider “CGACGTGCGAAATGTGCTG+CAGCACATCCCGCACGTCG (((((((((..((((((((+))))))))..)))))))))”, for which the midpoint of thermal melting (Tm) came out at 52.9 °C.

“CGACGTGCGTAATGTGCTG+CAGCACATTGAGCACGTCG ((((((((..(((((((((+)))))))))..))))))))”: the Tm came to 56.6 °C.

On to “CGACGTGCGTGATGTGCTG+CAGCACATAGGGCACGTCG ((((((((...((((((((+))))))))...))))))))”, for which the midpoint of thermal melting (Tm) was 50.6 °C.

Take “CGACGTGCATAATGTGCTG+CAGCACATGATGCACGTCG ((((((((((.((((((((+)))))))).))))))))))”: the Tm turned out to be 56.8 °C.

On to “CGACGTGCGATATGTGCTG+CAGCACATTCAGCACGTCG ((((((((...((((((((+))))))))...))))))))”, for which the Tm worked out at 52.8 °C.

As to “CGACGTGCCTTATGTGCTG+CAGCACATAAGGCACGTCG (((((((((((((((((((+)))))))))))))))))))”, the Tm was found to be 62.9 °C.

As for “CGACGTGCAAAATGTGCTG+CAGCACATTTCGCACGTCG ((((((((.((((((((((+)))))))))).))))))))”, the Tm was found to be 55.4 °C.

“CGACGTGCAGCATGTGCTG+CAGCACATGTGGCACGTCG ((((((((..(((((((((+)))))))))..))))))))”: the midpoint of thermal melting (Tm) is 55.5 °C.

Consider “CGACGTGCCGTATGTGCTG+CAGCACATGTAGCACGTCG ((((((((...((((((((+))))))))...))))))))”, for which the melting temperature (Tm) was 49.1 °C.

Take “CGACGTGCAGAATGTGCTG+CAGCACATGTGGCACGTCG ((((((((...((((((((+))))))))...))))))))”: the midpoint of thermal melting (Tm) was 51.7 °C.

Regarding “CGACGTGCCAGATGTGCTG+CAGCACATACCGCACGTCG ((((((((...((((((((+))))))))...))))))))”, the Tm was 47.6 °C.

Regarding “CGACGTGCTCGATGTGCTG+CAGCACATCGTGCACGTCG ((((((((.((((((((((+)))))))))).))))))))”, the Tm stood at 59 °C.

As for “CGACGTGCTTAATGTGCTG+CAGCACATAGCGCACGTCG ((((((((...((((((((+))))))))...))))))))”, the Tm was 47.3 °C.

Consider “CGACGTGCGCTATGTGCTG+CAGCACATATCGCACGTCG (((((((((.(((((((((+))))))))).)))))))))”, for which the Tm came out at 56 °C.

Consider “CGACGTGCAGAATGTGCTG+CAGCACATATAGCACGTCG ((((((((...((((((((+))))))))...))))))))”, for which the midpoint of thermal melting (Tm) stood at 50.4 °C.

“CGACGTGCTGAATGTGCTG+CAGCACATCTAGCACGTCG (((((((((..((((((((+))))))))..)))))))))”: the Tm was 53 °C.

Regarding “CGACGTGCCTGATGTGCTG+CAGCACATTCCGCACGTCG ((((((((...((((((((+))))))))...))))))))”, the melting temperature (Tm) is 48.5 °C.

Regarding “CGACGTGCCCCATGTGCTG+CAGCACATGTCGCACGTCG ((((((((..(((((((((+)))))))))..))))))))”, the Tm is 51.2 °C.

On to “CGACGTGCTATATGTGCTG+CAGCACATAAAGCACGTCG (((((((((.(((((((((+))))))))).)))))))))”, for which the melting temperature (Tm) came out at 55.6 °C.

For “CGACGTGCGTCATGTGCTG+CAGCACATCATGCACGTCG ((((((((.(.((((((((+)))))))).).))))))))”, the melting temperature (Tm) amounted to 50.8 °C.

For “CGACGTGCGCCATGTGCTG+CAGCACATGGGGCACGTCG ((((((((.((((((((((+)))))))))).))))))))”, the Tm was 63.2 °C.

Regarding “CGACGTGCTGAATGTGCTG+CAGCACATTCGGCACGTCG ((((((((.((((((((((+)))))))))).))))))))”, the Tm was determined as 60.6 °C.

Take “CGACGTGCATAATGTGCTG+CAGCACATGCCGCACGTCG ((((((((...((((((((+))))))))...))))))))”: the Tm came out at 50.9 °C.

As to “CGACGTGCGCTATGTGCTG+CAGCACATAGTGCACGTCG ((((((((.((((((((((+)))))))))).))))))))”, the Tm stood at 58.2 °C.

In the case of “CGACGTGCGCCATGTGCTG+CAGCACATAGTGCACGTCG ((((((((.(.((((((((+)))))))).).))))))))”, the Tm was found to be 49 °C.

For the substance “CGACGTGCAAGATGTGCTG+CAGCACATGTGGCACGTCG ((((((((.(.((((((((+)))))))).).))))))))”, the melting temperature (Tm) worked out at 52.8 °C.

As to “CGACGTGCTGTATGTGCTG+CAGCACATAATGCACGTCG ((((((((..(((((((((+)))))))))..))))))))”, the Tm is 51.5 °C.

Turning to “CGACGTGCGAGATGTGCTG+CAGCACATCTTGCACGTCG ((((((((.((((((((((+)))))))))).))))))))”, the Tm turned out to be 60.2 °C.
